Here are results for 17 molecules from patent US20110294748A1 (Janssen / Centocor, published 2011).

Ends that are not written are not given here.

To fix the notation:
B1: phage clone 8 (peptide SEQ ID NO: 4 displayed on pIX phage) (peptide, not shown: large carriers)
peptide: PVCPSFCYDQYVCPT
modifications: cysteine pairing not given here; also: displayed on phage pIX
notes: Tested as phage lysate
B2: phage clone 16 (peptide SEQ ID NO: 12 displayed on pIX phage) (peptide, not shown: large carriers)
peptide: AGCPSPMPPVDPGFYSAIVQLCRE
modifications: cysteine pairing not given here; also: displayed on phage pIX
notes: Tested as phage lysate
B3: phage clone 5 (peptide SEQ ID NO: 1 displayed on pIX phage) (peptide, not shown: large carriers)
peptide: TGCDFPELCRGCHP
modifications: cysteine pairing not given here; also: displayed on phage pIX
notes: Tested as phage lysate
B4: phage clone 17 (peptide SEQ ID NO: 13 displayed on pIX phage) (peptide, not shown: large carriers)
peptide: DDIDEFLHQLHNLVNNVH
notes: Tested as phage lysate
B5: phage clone 7 (peptide SEQ ID NO: 3 displayed on pIX phage) (peptide, not shown: large carriers)
peptide: PFCYSGGPLPYPCTY
modifications: cysteine pairing not given here; also: displayed on phage pIX
notes: Tested as phage lysate
B6: phage clone 14 (peptide SEQ ID NO: 10 displayed on pIX phage) (peptide, not shown: large carriers)
peptide: VECDTPSITFSPGLEALFWNTCSP
modifications: cysteine pairing not given here; also: displayed on phage pIX
notes: Tested as phage lysate
B7: phage clone 9 (peptide SEQ ID NO: 5 displayed on pIX phage) (peptide, not shown: large carriers)
peptide: FTCAVYSLSELDCRD
modifications: cysteine pairing not given here; also: displayed on phage pIX
notes: Tested as phage lysate
B8: phage clone 12 (peptide SEQ ID NO: 8 displayed on pIX phage) (peptide, not shown: large carriers)
peptide: SNCPPLDMRLTELCVM
modifications: cysteine pairing not given here; also: displayed on phage pIX
notes: Tested as phage lysate
B9: phage clone 10 (peptide SEQ ID NO: 6 displayed on pIX phage) (peptide, not shown: large carriers)
peptide: LSCYDPTLRTLYCHV
modifications: cysteine pairing not given here; also: displayed on phage pIX
notes: Tested as phage lysate
B10: phage clone 11 (peptide SEQ ID NO: 7 displayed on pIX phage) (peptide, not shown: large carriers)
peptide: HTCFYPTLMPPELCFD
modifications: cysteine pairing not given here; also: displayed on phage pIX
notes: Tested as phage lysate
B11: phage clone 6 (peptide SEQ ID NO: 2 displayed on pIX phage) (peptide, not shown: large carriers)
peptide: AECEWPWLTLELCQS
modifications: cysteine pairing not given here; also: displayed on phage pIX
notes: Tested as phage lysate
B12: PG-peptide fusion of clone 10 (protein G IgG domain with peptide SEQ ID NO: 6 at its C-terminus) (other)
chain: YKLILNGKTLKGETTTEAVDAATAEKVFKQYANDNGVDGEWTYDDATKTFTVTELSCYDPTLRTLYCHV
notes: also called PG-peptide fusion clone 10
B13: PG-peptide fusion of clone 8 (protein G IgG domain with peptide SEQ ID NO: 4 at its C-terminus) (other)
chain: YKLILNGKTLKGETTTEAVDAATAEKVFKQYANDNGVDGEWTYDDATKTFTVTEPVCPSFCYDQYVCPT
notes: also called PG-peptide fusion clone 8
B14: PG-peptide fusion of clone 6 (protein G IgG domain with peptide SEQ ID NO: 2 at its C-terminus) (other)
chain: YKLILNGKTLKGETTTEAVDAATAEKVFKQYANDNGVDGEWTYDDATKTFTVTEAECEWPWLTLELCQS
notes: also called PG-peptide fusion clone 6
B15: PG-peptide fusion of clone 7 (protein G IgG domain with peptide SEQ ID NO: 3 at its C-terminus) (other)
chain: YKLILNGKTLKGETTTEAVDAATAEKVFKQYANDNGVDGEWTYDDATKTFTVTEPFCYSGGPLPYPCTY
notes: also called PG-peptide fusion clone 7
B16: PG-peptide fusion of clone 9 (protein G IgG domain with peptide SEQ ID NO: 5 at its C-terminus) (other)
chain: YKLILNGKTLKGETTTEAVDAATAEKVFKQYANDNGVDGEWTYDDATKTFTVTEFTCAVYSLSELDCRD
notes: also called PG-peptide fusion clone 9
B17: PG-peptide fusion of clone 5 (protein G IgG domain with peptide SEQ ID NO: 1 at its C-terminus) (other)
chain: YKLILNGKTLKGETTTEAVDAATAEKVFKQYANDNGVDGEWTYDDATKTFTVTETGCDFPELCRGCHP
notes: also called PG-peptide fusion clone 5

One assay has as its target T1, soluble IGF1R (sIGF1R), extracellular domain of human insulin-like growth factor 1 receptor, carboxy-terminal … (human, UniProt P08069 31-932).
T1 construct: Bought from R&D Systems; GenBank NP-000866 is printed for the whole receptor; also called IFG1R
The assay can be described thus: solid phase phage ELISA, phage lysate on coated sIGF1R. As for the experimental part: Total of 384 individual phage lysates from the panning were tested for binding specificity towards sIGF1R in a solid phase phage ELISA. Briefly, 100 μl/well of 5 μg/ml sIGF1R (R&D Systems, Minneapolis, Minn.) was bound to Black Maxisorp Plates (Nunc, Rochester, N.Y.), 25 μl of phage lysate added, and the reaction was detected using anti-M13-HRP antibody (EMD Biosciences, Gibbstown, N.J.) and POD substrate (Roche, Indianapolis, Ind.), and the signal detected using a TEKAN plate reader. […] Positive lysates were defined as clones with a sIGF1R specific signal that was three fold above the background of the negative control. A total of 13 clones with unique peptide sequences were obtained with confirmed binding to the sIGF1R (Table 1). From these 13 clones, 3 (clones 5, 13 and 16) cross-reacted with the insulin receptor.
For B1, the binding result is recorded as “binds”. Still for that read-out and setting: the value for B2 was “binds”; that for B3 was “binds”. The same measure, in the same setting: the value for B4 was “binds”; that for B5 was “binds”; that for B6 was “binds”. For the molecule B7, the binding result was “binds”. Still for that read-out and setting: the value for B8 was “binds”; that for B9 was “binds”. Same read-out and setting: in the case of B10 it was “binds”; in that of B11, “binds”.

For another assay, the target named is T1, soluble IGF1R (sIGF1R), extracellular …. The assay can be described thus: ELISA, serially diluted PG-peptide fusion on coated sIGF1R, one site binding fit. As for the experimental part: Relative binding affinities of the PG-peptide fusions for sIGF1R were measured using ELISA. The Kds were determined using GraphPad Prism 4 software with a one site binding equation. 100 μl of 2 μg/ml sIGF1R(R&D Systems, Minneapolis, Minn.) in Dulbecco's Phosphate Buffer Saline (DPBS (−/−)) was coated onto a 96 well Black Maxisorp plates (Nunc, Rochester, N.Y.) overnight at 4° C. The plates were washed with TBST and the wells blocked with 200 μl/well Starting Block T20 (TBS) (Pierce, Rockford, Ill.) for 1 hr, room temperature with 300 rpm shaking. 75 μl/well of purified, serially diluted PG-peptide fusions, starting concentration 40 μM, was added into the wells and incubated for 1 h, room temperature with 300 rpm mixing; the volume was brought up to 100 μl with Starting Block T20. The plates were washed 3× with TBST and then probed with 100 μl/well Peroxidase labeled-Rabbit antibody (1:5000) (Rockland, Gilbertsville, Pa.), washed, and the signal was detected using 100 μl/well POD substrate (Roche, Indianapolis, Ind.). Chemiluminescence was detected using a Molecular Devices M5 plate reader.
In general terms: ELISA stands for enzyme-linked immunosorbent assay.
B12 showed a half-maximal effective concentration (EC50) of 4.3 µM. For the molecule B13, the EC50 stood at 1.6 µM.

Consider B14, for which a half-maximal effect (EC50) was put at 1 µM. Regarding B15, the EC50 turned out to be 1.8 µM.

On to B16, for which it took 3.5 µM to reach a half-maximal effect (EC50). On to B17, for which the concentration giving a half-maximal response (EC50) came to 0.75 µM.

A word on the EC50: it is the midpoint of the concentration-response curve. A low value points to greater potency.
